“Also recorded” adds a separate entry of the source.
Experiment: HPLC assay of CPT-11 conversion to SN-38 by conditioned media of transiently expressed BChE variants
Format: biochemical
Conditions: for SN-38 formation from CPT-11 (in words): conditioned media, HPLC, compared to mock or wild-type; for Fold improvement in CPT-11 conversion: compared to wild-type butyrylcholinesterase, conditioned media exposed to 20 mM CPT-11 for 72 hours at 37° C., conservative values
Experimental: Butyrylcholinesterase variants were assayed for CPT-11 conversion activity using fluorescent High Performance Liquid Chromotography (HPLC) detection of SN-38 formation as described in Dodds and Rivory, Mol. Pharmacol. 56:1346-1353 (1999), which is incorporated herein by reference. Briefly, conditioned media from transiently expressed BChE variants were exposed to 20 mM CPT-11 for 72 hours at 37° C. and analyzed by HPLC for SN-38 formation (peak at about 4 minutes column retention time).

B1: F227A (protein)
chain: EDDIIIATKNGKVRGMNLTVFGGTVTAFLGIPYAQPPLGRLRFKKPQSLTKWSDIWNATKYANSCCQNIDQSFPGFHGSEMWNPNTDLSEDCLYLNVWIPAPKPKNATVLIWIYGGGFQTGTSSLHVYDGKFLARVERVIVVSMNYRVGALGFLALPGNPEAPGNMGLFDQQLALQWVQKNIAAFGGNPKSVTLFGESAGAASVSLHLLSPGSHSLFTRAILQSGSXNAPWAVTSLYEARNRTLNLAKLTGCSRENETEIIKCLRNKDPQEILLNEAFVVPYGTPLSVNFGPTVDGDFLTDMPDILLELGQFKKTQILVGVNKDEGTAFLVYGAPGFSKDNNSIITRKEFQEGLKIFFPGVSEFGKESILFHYTDWVDDQRPENYREALGDVVGDYNFICPALEFTKKFSEWGNNAFFYYFEHRSSKLPWPEWMGVMHGYEIEFVFGLPLERRDNYTKAEEILSRSIVKRWANFAKYGNPNETQNNSTSWPVFKSTEQKYLTLNTESTRIMTKLRAQQCRFWTSFFPKVLEMTGNIDEAEWEWKAGFHRWNNYMMDWKNQFNDYTSKKESCVGL
modifications: Synthetic butyrylcholinesterase variant; VARIANT (227)..(227): Xaa = Ala
Question: For B1, which “SN-38 formation from CPT-11 (in words)” value is on record?
Answer: produced a small amount of SN-38; also recorded: increased CPT-11 conversion to SN-38

B2: F227A/L286W (protein)
chain: EDDIIIATKNGKVRGMNLTVFGGTVTAFLGIPYAQPPLGRLRFKKPQSLTKWSDIWNATKYANSCCQNIDQSFPGFHGSEMWNPNTDLSEDCLYLNVWIPAPKPKNATVLIWIYGGGFQTGTSSLHVYDGKFLARVERVIVVSMNYRVGALGFLALPGNPEAPGNMGLFDQQLALQWVQKNIAAFGGNPKSVTLFGESAGAASVSLHLLSPGSHSLFTRAILQSGSANAPWAVTSLYEARNRTLNLAKLTGCSRENETEIIKCLRNKDPQEILLNEAFVVPYGTPWSVNFGPTVDGDFLTDMPDILLELGQFKKTQILVGVNKDEGTAFLVYGAPGFSKDNNSIITRKEFQEGLKIFFPGVSEFGKESILFHYTDWVDDQRPENYREALGDVVGDYNFICPALEFTKKFSEWGNNAFFYYFEHRSSKLPWPEWMGVMHGYEIEFVFGLPLERRDNYTKAEEILSRSIVKRWANFAKYGNPNETQNNSTSWPVFKSTEQKYLTLNTESTRIMTKLRAQQCRFWTSFFPKVLEMTGNIDEAEWEWKAGFHRWNNYMMDWKNQFNDYTSKKESCVGL
modifications: Synthetic butyrylcholinesterase variant; VARIANT (227)..(227): F227A; VARIANT (286)..(286): L286W
Question: With B2 as the molecule, how does the “Fold improvement in CPT-11 conversion” value read?
Answer: >42 fold

Question: What about the “SN-38 formation from CPT-11 (in words)” value of the same molecule?
Answer: increased CPT-11 conversion to SN-38

B3: F227A/L286Q (protein)
chain: EDDIIIATKNGKVRGMNLTVFGGTVTAFLGIPYAQPPLGRLRFKKPQSLTKWSDIWNATKYANSCCQNIDQSFPGFHGSEMWNPNTDLSEDCLYLNVWIPAPKPKNATVLIWIYGGGFQTGTSSLHVYDGKFLARVERVIVVSMNYRVGALGFLALPGNPEAPGNMGLFDQQLALQWVQKNIAAFGGNPKSVTLFGESAGAASVSLHLLSPGSHSLFTRAILQSGSXNAPWAVTSLYEARNRTLNLAKLTGCSRENETEIIKCLRNKDPQEILLNEAFVVPYGTPQSVNFGPTVDGDFLTDMPDILLELGQFKKTQILVGVNKDEGTAFLVYGAPGFSKDNNSIITRKEFQEGLKIFFPGVSEFGKESILFHYTDWVDDQRPENYREALGDVVGDYNFICPALEFTKKFSEWGNNAFFYYFEHRSSKLPWPEWMGVMHGYEIEFVFGLPLERRDNYTKAEEILSRSIVKRWANFAKYGNPNETQNNSTSWPVFKSTEQKYLTLNTESTRIMTKLRAQQCRFWTSFFPKVLEMTGNIDEAEWEWKAGFHRWNNYMMDWKNQFNDYTSKKESCVGL
modifications: Synthetic butyrylcholinesterase variant; VARIANT (227)..(227): Xaa = Ala; VARIANT (286)..(286): L286Q
Question: With B3 as the molecule, how does the “Fold improvement in CPT-11 conversion” value read?
Answer: >10 fold

Question: What about the “SN-38 formation from CPT-11 (in words)” value of the same molecule?
Answer: increased CPT-11 conversion to SN-38

B4: F227A/T284A (protein)
chain: EDDIIIATKNGKVRGMNLTVFGGTVTAFLGIPYAQPPLGRLRFKKPQSLTKWSDIWNATKYANSCCQNIDQSFPGFHGSEMWNPNTDLSEDCLYLNVWIPAPKPKNATVLIWIYGGGFQTGTSSLHVYDGKFLARVERVIVVSMNYRVGALGFLALPGNPEAPGNMGLFDQQLALQWVQKNIAAFGGNPKSVTLFGESAGAASVSLHLLSPGSHSLFTRAILQSGSXNAPWAVTSLYEARNRTLNLAKLTGCSRENETEIIKCLRNKDPQEILLNEAFVVPYGXPLSVNFGPTVDGDFLTDMPDILLELGQFKKTQILVGVNKDEGTAFLVYGAPGFSKDNNSIITRKEFQEGLKIFFPGVSEFGKESILFHYTDWVDDQRPENYREALGDVVGDYNFICPALEFTKKFSEWGNNAFFYYFEHRSSKLPWPEWMGVMHGYEIEFVFGLPLERRDNYTKAEEILSRSIVKRWANFAKYGNPNETQNNSTSWPVFKSTEQKYLTLNTESTRIMTKLRAQQCRFWTSFFPKVLEMTGNIDEAEWEWKAGFHRWNNYMMDWKNQFNDYTSKKESCVGL
modifications: Synthetic butyrylcholinesterase variant; VARIANT (227)..(227): Xaa = Ala; VARIANT (284)..(284): Xaa = Ala
Question: With B4 as the molecule, how does the “Fold improvement in CPT-11 conversion” value read?
Answer: >7 fold

Question: What about the “SN-38 formation from CPT-11 (in words)” value of the same molecule?
Answer: increased CPT-11 conversion to SN-38

B5: F227A/L286S (protein)
chain: EDDIIIATKNGKVRGMNLTVFGGTVTAFLGIPYAQPPLGRLRFKKPQSLTKWSDIWNATKYANSCCQNIDQSFPGFHGSEMWNPNTDLSEDCLYLNVWIPAPKPKNATVLIWIYGGGFQTGTSSLHVYDGKFLARVERVIVVSMNYRVGALGFLALPGNPEAPGNMGLFDQQLALQWVQKNIAAFGGNPKSVTLFGESAGAASVSLHLLSPGSHSLFTRAILQSGSXNAPWAVTSLYEARNRTLNLAKLTGCSRENETEIIKCLRNKDPQEILLNEAFVVPYGTPSSVNFGPTVDGDFLTDMPDILLELGQFKKTQILVGVNKDEGTAFLVYGAPGFSKDNNSIITRKEFQEGLKIFFPGVSEFGKESILFHYTDWVDDQRPENYREALGDVVGDYNFICPALEFTKKFSEWGNNAFFYYFEHRSSKLPWPEWMGVMHGYEIEFVFGLPLERRDNYTKAEEILSRSIVKRWANFAKYGNPNETQNNSTSWPVFKSTEQKYLTLNTESTRIMTKLRAQQCRFWTSFFPKVLEMTGNIDEAEWEWKAGFHRWNNYMMDWKNQFNDYTSKKESCVGL
modifications: Synthetic butyrylcholinesterase variant; VARIANT (227)..(227): Xaa = Ala; VARIANT (286)..(286): L286S
Question: Which “Fold improvement in CPT-11 conversion” value does the source give for B5 here?
Answer: >50 fold

Question: What about the “Fold improvement in CPT-11 conversion” value (listed as F227A/L268S) of the same molecule?
Answer: ≥ 50 fold

Question: And the “SN-38 formation from CPT-11 (in words)” value?
Answer: significant conversion; also recorded: increased CPT-11 conversion to SN-38

B6: F227A/L286H (protein)
chain: EDDIIIATKNGKVRGMNLTVFGGTVTAFLGIPYAQPPLGRLRFKKPQSLTKWSDIWNATKYANSCCQNIDQSFPGFHGSEMWNPNTDLSEDCLYLNVWIPAPKPKNATVLIWIYGGGFQTGTSSLHVYDGKFLARVERVIVVSMNYRVGALGFLALPGNPEAPGNMGLFDQQLALQWVQKNIAAFGGNPKSVTLFGESAGAASVSLHLLSPGSHSLFTRAILQSGSXNAPWAVTSLYEARNRTLNLAKLTGCSRENETEIIKCLRNKDPQEILLNEAFVVPYGTPHSVNFGPTVDGDFLTDMPDILLELGQFKKTQILVGVNKDEGTAFLVYGAPGFSKDNNSIITRKEFQEGLKIFFPGVSEFGKESILFHYTDWVDDQRPENYREALGDVVGDYNFICPALEFTKKFSEWGNNAFFYYFEHRSSKLPWPEWMGVMHGYEIEFVFGLPLERRDNYTKAEEILSRSIVKRWANFAKYGNPNETQNNSTSWPVFKSTEQKYLTLNTESTRIMTKLRAQQCRFWTSFFPKVLEMTGNIDEAEWEWKAGFHRWNNYMMDWKNQFNDYTSKKESCVGL
modifications: Synthetic butyrylcholinesterase variant; VARIANT (227)..(227): Xaa = Ala; VARIANT (286)..(286): L286H
Question: Which “Fold improvement in CPT-11 conversion” value does the source give for B6 here?
Answer: >35 fold

Question: And the “SN-38 formation from CPT-11 (in words)” value?
Answer: increased CPT-11 conversion to SN-38
